Patent US20240141072A1 (published 2024)
Like-named read-outs stand apart in the source and are kept apart here.

T1: cynomolgus DLL3 (cynomolgus, UniProt A0A2K5WSR1 27-490)
T1 construct: also called cyDLL3
T1 sequence: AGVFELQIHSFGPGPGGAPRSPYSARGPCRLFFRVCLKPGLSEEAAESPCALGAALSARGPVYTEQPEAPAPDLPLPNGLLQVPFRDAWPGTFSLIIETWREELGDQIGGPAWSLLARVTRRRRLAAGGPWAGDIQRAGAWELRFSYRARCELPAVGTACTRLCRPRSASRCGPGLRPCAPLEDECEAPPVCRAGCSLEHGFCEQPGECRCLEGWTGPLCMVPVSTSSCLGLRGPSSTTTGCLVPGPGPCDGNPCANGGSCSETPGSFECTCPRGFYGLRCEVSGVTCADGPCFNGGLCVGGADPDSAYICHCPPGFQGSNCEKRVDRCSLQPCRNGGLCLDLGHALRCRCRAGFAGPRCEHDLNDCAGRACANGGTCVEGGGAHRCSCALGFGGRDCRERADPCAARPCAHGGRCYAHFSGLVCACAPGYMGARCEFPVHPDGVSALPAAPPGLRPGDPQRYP

T2: biotinylated human DLL3 protein expressed as a human IgG1 fusion protein (human, UniProt Q9NYJ7 27-492, limits assumed, biotinylated)
T2 sequence: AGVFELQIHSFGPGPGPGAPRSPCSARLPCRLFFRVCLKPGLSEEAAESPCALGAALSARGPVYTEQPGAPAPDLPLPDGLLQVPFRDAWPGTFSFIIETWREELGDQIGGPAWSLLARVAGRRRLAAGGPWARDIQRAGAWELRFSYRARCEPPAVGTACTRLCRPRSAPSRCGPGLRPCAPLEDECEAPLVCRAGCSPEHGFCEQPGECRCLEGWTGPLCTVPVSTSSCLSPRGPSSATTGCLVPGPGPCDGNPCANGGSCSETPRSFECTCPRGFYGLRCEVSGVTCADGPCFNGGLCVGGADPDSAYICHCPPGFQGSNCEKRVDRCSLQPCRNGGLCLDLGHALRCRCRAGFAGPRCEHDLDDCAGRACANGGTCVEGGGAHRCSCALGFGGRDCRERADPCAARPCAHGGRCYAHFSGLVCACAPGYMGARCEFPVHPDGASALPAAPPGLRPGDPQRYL

T3: human DLL3 on DLL3-expressing tumor cell lines (human, UniProt Q9NYJ7 27-618)
T3 sequence: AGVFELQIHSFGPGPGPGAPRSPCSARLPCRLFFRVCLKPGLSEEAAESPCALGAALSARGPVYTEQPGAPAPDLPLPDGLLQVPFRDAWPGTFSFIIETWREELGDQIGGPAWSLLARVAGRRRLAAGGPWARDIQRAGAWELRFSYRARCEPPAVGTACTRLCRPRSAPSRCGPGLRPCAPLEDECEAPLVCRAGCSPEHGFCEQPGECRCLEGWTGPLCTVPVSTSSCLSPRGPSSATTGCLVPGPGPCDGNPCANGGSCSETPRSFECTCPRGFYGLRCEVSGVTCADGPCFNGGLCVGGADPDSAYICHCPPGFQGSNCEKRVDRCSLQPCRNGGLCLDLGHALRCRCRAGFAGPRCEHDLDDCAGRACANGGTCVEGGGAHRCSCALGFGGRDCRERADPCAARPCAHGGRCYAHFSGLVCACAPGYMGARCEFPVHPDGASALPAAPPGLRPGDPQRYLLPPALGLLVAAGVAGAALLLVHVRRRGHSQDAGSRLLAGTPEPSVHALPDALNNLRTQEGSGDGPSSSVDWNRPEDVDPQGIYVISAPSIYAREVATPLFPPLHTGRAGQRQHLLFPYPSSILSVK


Legend:
cynomolgus DLL3 = target: T1, cynomolgus DLL3; assay: Octet BLI, single 60 nM
[1] = target: T2, biotinylated human DLL3 protein …; assay: Octet BLI, 60/20/6.67/2.22 nM
Experimental: Using the conditioned medium with known concentrations of the anti-DLL3 trispecific proteins, the binding affinities of the anti-DLL3 trispecific proteins toward human DLL3 protein were measured using a method where biotinylated version of human DLL3 protein were expressed as a human IgG1 fusion protein, and the binding affinity measurement was carried out in an Octet instrument with streptavidin tips.

[2] = target: T3, human DLL3 on DLL3-expressing tumor …; assay: cell-based or functional assay
[3] = target: T2, biotinylated human DLL3 protein …; assay: Octet BLI, single 50 nM
Method in brief: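 Read-out is binding affinity to human DLL3. Conditioned medium containing a known amount of each trispecific protein was run against the immobilised biotinylated DLL3 fusion.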

[4] = target: T3, human DLL3 on DLL3-expressing tumor …; assay: cell-based or functional assay; remark: listed apart in the source

Binder | Kd (cynomolgus DLL3) | Kd [1] | DMS-153 TDCC EC50 [2] | Kd [3] | DMS-153 TDCC EC50 [4]
1A011 anti-DLL3 trispecific protein (other, also called 1A11; not shown: linker 1808, anti-albumin sdAb, linker 1808, anti-CD3 fragment, His6 1819) EVQLVESGGGLVQPGGSLTLSCVASGSTSSINAIGWYRRAPGKQRELVAGISSDGSKVYIDSVKGRFTISRDNAKNSVYLQMNSLRAEDTAVYYCYYFRTVSGSSYRYWGQGTLVTVSS | 3.6 nM | 3.5 nM | 0.051 nM | 3.7 nM | 0.17 nM
2E010 anti-DLL3 trispecific protein (other, not shown: linker 1808, anti-albumin sdAb, linker 1808, anti-CD3 fragment, His6 1819) EVQLVESGGGLVQPGGSLTLSCVASGSTSSINAMAWYRRAPGKQRELVAGISSDGSKVYADSVKGRFTISRDNAKNSVYLQMNSLRAEDTAVYYCYYFHTVSGSSMRYWGQGTLVTVSS |  |  | 0.031 nM | 4 nM | 
2A04 anti-DLL3 trispecific protein (other, not shown: linker 1808, anti-albumin sdAb, linker 1808, anti-CD3 fragment, His6 1819) EVQLVESGGGLVQPGGSLTLSCVASGSTSSINAMAWYRRAPGKQRELVAGISSDGSKVYTDSVKGRFTISRDNAKNSVYLQMNSLRAEDTAVYYCYYFRTTSGSSMRYWGQGTLVTVSS |  |  | 0.081 nM | 5.6 nM | 
2E02 anti-DLL3 trispecific protein (other, not shown: linker 1808, anti-albumin sdAb, linker 1808, anti-CD3 fragment, His6 1819) EVQLVESGGGLVQPGGSLTLSCVASGSTSAINAMGWYRRAPGKQRELVAGISSDGSKVYVDSVKGRFTISRDNAKNSVYLQMNSLRAEDTAVYYCYYFRTVSGSSQRYWGQGTLVTVSS | 3.4 nM | 4.4 nM | 0.059 nM | 6 nM | 0.12 nM
2C04 anti-DLL3 trispecific protein (other, not shown: linker 1808, anti-albumin sdAb, linker 1808, anti-CD3 fragment, His6 1819) EVQLVESGGGLVQPGGSLTLSCVASGSTSSRNAMGWYRRAPGKQRELVAGISSDGSKLYADSVKGRFTISRDNAKNSVYLQMNSLRAEDTAVYYCYYFRTVLGSSMRYWGQGTLVTVSS |  |  |  | 6.8 nM | 0.043 nM
1C03 anti-DLL3 trispecific protein (other, not shown: linker 1808, anti-albumin sdAb, linker 1808, anti-CD3 fragment, His6 1819) EVQLVESGGGLVQPGGSLTLSCVASGSTSSINAMAWYRRAPGKQRELVAGISSDNSKVYADSVKGRFTISRDNAKNSVYLQMNSLRAEDTAVYYCYYFRTVGGSSMRYWGQGTLVTVSS |  |  | 0.096 nM | 6.1 nM | 
2E011 anti-DLL3 trispecific protein (other, not shown: linker 1808, anti-albumin sdAb, linker 1808, anti-CD3 fragment, His6 1819) EVQLVESGGGLVQPGGSLTLSCVASGSTSSINAIGWYRRAPGKQRELVAGISSDGSSVYADSVKGRFTISRDNAKNSVYLQMNSLRAEDTAVYYCYYFRRVSGSSMRYWGQGTLVTVSS |  |  | 0.19 nM | 2.4 nM | 
3A02 anti-DLL3 trispecific protein (other, not shown: linker 1808, anti-albumin sdAb, linker 1808, anti-CD3 fragment, His6 1819) EVQLVESGGGLVQPGGSLTLSCAASGSSVSFLSLAWYRQAPGKKRELVAGISADGSTAYIDSVKGRFTISRDNAKNSVYLQMNSLRAEDTAVYYCYAYRWRTRYTYWGQGTLVTVSS | 9.5 nM | 7.8 nM |  | 8.1 nM | 
3A011 anti-DLL3 trispecific protein (other, not shown: linker 1808, anti-albumin sdAb, linker 1808, anti-CD3 fragment, His6 1819) EVQLVESGGGLVQPGGSLTLSCAASGSSVSFLSLAWYRQAPGKKRELVAGISTDGSTDYIDSVKGRFTISRDNAKNSVYLQMNSLRAEDTAVYYCYAYRWRTRYTYWGQGTLVTVSS | 8.8 nM | 7.3 nM |  | 6.8 nM | 
4H04 anti-DLL3 trispecific protein (other, not shown: linker 1808, anti-albumin sdAb, linker 1808, anti-CD3 fragment, His6 1819) EVQLVESGGGLVQPGGSLTLSCAASGSSVKFLSMAWYRQAPGKKRELVAGVSADGSTDYIDSVKGRFTISRDNAKNSVYLQMNSLRAEDTAVYYCYAYEWTTRYTYWGQGTLVTVSS |  |  | 0.051 nM | 6.1 nM | 
4H09 anti-DLL3 trispecific protein (other, not shown: linker 1808, anti-albumin sdAb, linker 1808, anti-CD3 fragment, His6 1819) EVQLVESGGGLVQPGGSLTLSCAASGSSVSKLSMAWYRQAPGKKRELVAGISADGSTDYRDSVKGRFTISRDNAKNSVYLQMNSLRAEDTAVYYCYAYRWTYRYTYWGQGTLVTVSS |  |  |  | 16 nM | 
4B011 anti-DLL3 trispecific protein (other, not shown: linker 1808, anti-albumin sdAb, linker 1808, anti-CD3 fragment, His6 1819) EVQLVESGGGLVQPGGSLTLSCAASGSSVTFLSMAWYRQAPGKKRELVAGISADGSTVYIDSVKGRFTISRDNAKNSVYLQMNSLRAEDTAVYYCYAYRWTTRGTYWGQGTLVTVSS |  |  | 0.048 nM | 3.9 nM | 
3C04 anti-DLL3 trispecific protein (other, not shown: linker 1808, anti-albumin sdAb, linker 1808, anti-CD3 fragment, His6 1819) EVQLVESGGGLVQPGGSLTLSCAASGSHVSFLSMAWYRQAPGKKRELVAGISADGPTDYIDSVKGRFTISRDNAKNSVYLQMNSLRAEDTAVYYCYAYRWDTRYTYWGQGTLVTVSS | 5.7 nM | 4 nM | 0.052 nM | 4.5 nM | 
4D011 anti-DLL3 trispecific protein (other, also called 4D11; not shown: linker 1808, anti-albumin sdAb, linker 1808, anti-CD3 fragment, His6 1819) EVQLVESGGGLVQPGGSLTLSCAASGSSVRFLSMAWYRQAPGKKRELVAGISVDGSTDYIDSVKGRFTISRDNAKNSVYLQMNSLRAEDTAVYYCYAYRWRTRYTYWGQGTLVTVSS |  |  |  | 5.8 nM | 0.098 nM
3H06 anti-DLL3 trispecific protein (other, not shown: linker 1808, anti-albumin sdAb, linker 1808, anti-CD3 fragment, His6 1819) EVQLVESGGGLVQPGGSLTLSCAASGSSVSQLSMAWYRQAPGKKRELVAGISADGSTDYFDSVKGRFTISRDNAKNSVYLQMNSLRAEDTAVYYCYAYRWTTRGTYWGQGTLVTVSS |  |  | 0.12 nM | 8 nM | 
3D07 anti-DLL3 trispecific protein (other, not shown: linker 1808, anti-albumin sdAb, linker 1808, anti-CD3 fragment, His6 1819) EVQLVESGGGLVQPGGSLTLSCAASGSSVRFLSMAWYRQAPGKKRELVAGISADGSTDYIDSVKGRFTISRDNAKNSVYLQMNSLRAEDTAVYYCYAYSWTTRYTYWGQGTLVTVSS |  |  | 0.061 nM | 5.9 nM | 
4B07 anti-DLL3 trispecific protein (other, not shown: linker 1808, anti-albumin sdAb, linker 1808, anti-CD3 fragment, His6 1819) EVQLVESGGGLVQPGGSLTLSCAASGSSVGFLSMAWYRQAPGKKRELVAGISADGSTVYIDSVKGRFTISRDNAKNSVYLQMNSLRAEDTAVYYCYAYRWTTRYTYWGQGTLVTVSS |  |  | 0.067 nM | 4.3 nM | 
4C06 anti-DLL3 trispecific protein (other, not shown: linker 1808, anti-albumin sdAb, linker 1808, anti-CD3 fragment, His6 1819) EVQLVESGGGLVQPGGSLTLSCAASNSSVSKLSMAWYRQAPGKKRELVAGISADGSTAYIDSVKGRFTISRDNAKNSVYLQMNSLRAEDTAVYYCYAYRWSTRYTYWGQGTLVTVSS |  |  | 0.068 nM | 6.8 nM | 
4E02 anti-DLL3 trispecific protein (other, not shown: linker 1808, anti-albumin sdAb, linker 1808, anti-CD3 fragment, His6 1819) EVQLVESGGGLVQPGGSLTLSCAASGSQVSFLSMAWYRQAPGKKRELVAGISADGSTVYIDSVKGRFTISRDNAKNSVYLQMNSLRAEDTAVYYCYAYRWSTRYTYWGQGTLVTVSS |  |  | 0.041 nM | 3.8 nM | 
3H011 anti-DLL3 trispecific protein (other, not shown: linker 1808, anti-albumin sdAb, linker 1808, anti-CD3 fragment, His6 1819) EVQLVESGGGLVQPGGSLTLSCAASGSSVKFLSMAWYRQAPGKKRELVAGISADGSTVYIDSVKGRFTISRDNAKNSVYLQMNSLRAEDTAVYYCYAYRWPTRYTYWGQGTLVTVSS |  |  | 0.12 nM | 2.7 nM | 
2E01 anti-DLL3 trispecific protein (other, not shown: linker 1808, anti-albumin sdAb, linker 1808, anti-CD3 fragment, His6 1819) EVQLVESGGGLVQPGGSLTLSCVASGSTSSINAMGWYRRAPFKQGELPAGISPDGTKAYADSAKVRFTISRDNAKNSVYLQMNSLRAEDTAVYYCYYFHTVCGTSMGYWGQGTLVTVSS |  |  | 0.033 nM | 4.1 nM | 
